In patent US7691567B2, “Methods and compositions relating to fortilin, an anti-apoptotic molecule, and modulators of fortilin” (Board of Regents, the University of Texas System, priority 2000, dated 2010):
“Also recorded” adds a separate entry of the source. Read-outs that look alike come from different tables or passages of the source.

Assays:
[1] = system: HeLa cells; test: Cell death assay: etoposide-induced apoptosis in transfected HeLa cells (apoptotic index); type: cell-based
Procedure: Cell death assay: The experiment was performed in duplicate and repeated at least three times. A total of […] HeLa cells were seeded in each well of a 4-well Lab-Teck™ chamber slides (Nalge Nunc International), and transfected with pFLAG containing Fortilin or other control cDNAs, using FuGENE6 (Roche). Twenty-four hours after the transfection, the cells were challenged by 5 μg/mL etoposide for 12 hours. Cells were stained for the FLAG-epitope using anti-FLAG antibody (M2, Sigma Co) and anti-mouse IgG conjugated to Rhodamine Red X (Jackson ImmunoResearch Laboratories). The nuclei were stained with DAPI (4,6-Diamidino-2-phenylindole, Sigma Co). Cells were then examined under a Zeiss AXIOSKOP fluorescent microscope (Carl Zeiss Ltd.), using appropriate filter sets. Cells that emitted red fluorescence were evaluated for their nuclear morphology. Condensed or fragmented nuclei were counted as apoptotic. An apoptotic index was then calculated as the number of red cells with apoptotic nuclear morphology divided by the number of total red cells counted and multiplied by 100.
Statistical analysis: For the analysis of statistical significance of apoptotic indices among cells transfected with different plasmids, Dunnett's T tests were performed. In all cases, the confidence intervals were 0.95 with the alpha value of 0.05. For the statistical evaluation of the significant linear trend between the amount of plasmids used for the transfection and apoptotic indices, ANOVA (Analysis of Variance) regression analysis was employed. […] For the analysis of statistical significance of possible correlation between the degree of malignancy and the indices of Fortilin immunoreactivity, Dunnett's multiple range tests were performed.

[2] = molecular target: T1, MCL1 (Homo sapiens, UniProt Q07820); test: GST-Fortilin in vitro pull-down of labeled MCL1; type: binding; conditions: 35S-labeled MCL1
Procedure: Studies were initiated to determine whether p53 and Fortilin specifically interact. Either recombinant GST-Fortilin or GST only were incubated at 4° C. for 90 minutes with in vitro translated, [^35S-Met]-labeled p53, MCL1 or Bcl-xL, in Binding Buffer (50 mM HEPES, pH7.5, 70 mM KCl, 0.5 mM ATP, 5 mM MgSO4, 1 mM DTT, 0.001% NP40, 50 μM MG132, 2 μg/mL BSA, Aporotinin, PMSF and protease inhibitor cocktail (Sigma Co., St. Louis, Mo.)). The GST or GST-Fortilin was then pulled down with Glutathione Sepharose 4B beads (Amersham-Pharmacia Biotechnologies). Formed complexes were extensively washed and eluted into SDS loading buffer. The eluted proteins were subjected to SDS-PAGE in duplicate. The first SDS gel was stained with Commassie Blue to confirm the successful immunoprecipitation of GST and GST-Fortilin (IP). […] Thus, there is a specific interaction present between Fortilin and p53, between Fortilin and MCL1.

[3] = molecular target: T1, MCL1; test: In vitro pull-down assay of HA-tagged Fortilin or mutants with MCL1; type: binding; conditions: in vitro translated 35S-labeled proteins, anti-HA pull-down
[4] = molecular target: T2, Bak (Homo sapiens, UniProt Q16611); test: In vitro pull-down assay of Fortilin-HA with Bak; type: binding; conditions: in vitro translated proteins, anti-HA pull-down
T2 sequence (Q16611 1-211): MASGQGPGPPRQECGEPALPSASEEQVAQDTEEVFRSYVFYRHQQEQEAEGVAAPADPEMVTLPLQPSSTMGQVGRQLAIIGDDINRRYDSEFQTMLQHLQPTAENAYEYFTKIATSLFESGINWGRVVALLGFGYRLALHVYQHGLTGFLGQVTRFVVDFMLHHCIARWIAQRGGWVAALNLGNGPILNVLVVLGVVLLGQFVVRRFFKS

[5] = molecular target: Bax (Homo sapiens, UniProt Q07812); test: In vitro pull-down assay of Fortilin-HA with Bax; type: binding; conditions: in vitro translated proteins, anti-HA pull-down
[6] = molecular target: PCNA (Homo sapiens, UniProt P12004); test: In vitro pull-down assay of Fortilin-HA with PCNA; type: binding; conditions: in vitro translated proteins, anti-HA pull-down
[7] = system: U2OS cells; test: Bax-mediated apoptosis in transfected U2OS cells (apoptotic index); type: cell-based; conditions: U2OS cells cotransfected with Bax-pcDNA3, thirty hours after transfection
Procedure: The amount of LacZ-pFLAG was 1/10 to 1/20 (w/w) of total amounts of DNA added. Thirty hours after the transfection, cells were stained with X-gal. Blue cells represented cells expressing Bax, β-galactosidase and indicated proteins in question. At least 300 blue cells were counted and evaluated for plasma membrane morphology. Rounded cells were counted as apoptotic. Apoptotic index was calculated as the number of blue apoptotic cells divided by the number of total blue cells counted, expressed in percentage. Without the expression of Bax, there was a modest amount of background cell death noted (Lane 6). On the other hand, the presence of Bax caused 2 holds increase in the number of apoptotic cells (Lane 5). […] Taken together, the ability of Fortilin to inhibit Bax mediated apoptosis is mediated by its interaction with MCL1.

[8] = system: U2OS cells; conditions: for cytotoxicity index relative to control transfectants: U2OS stable transfectants of HA-tagged Fortilin or deletion mutants, 5 μg/mL etoposide 48 hours
Text: Generation and characterization of U2OS cells stably expressing Fortilin. U2OS cells were transfected with empty pcDNA6, a mammalian expression vector containing a blasticidine resistance gene (Invitrogen, Carlsbad, Calif.), or with pcDNA6 vector encoding wild-type Fortilin, by using FuGENE6 (Roche Molecular Biochemicals) according to the manufacturer's instructions. Transfected cells were selected for approximately 3 weeks and characterized by Western blot analysis. For the cytotoxicity assay, U2OS cells stably expressing wild-type Fortilin (U2OS.F) and U2OS cells stably harboring empty pcDNA6 (U2OS.E) were seeded in a 96 well plate in quadruplicate. For the investigation of dose response, cells were challenged with various concentrations of etoposide (0-20 μg/mL) for 48 hours. For the time course study, cells were challenged with 5 μg/mL of etoposide and harvested after various incubation periods (0-96 hours). In both cases, the cell media were assayed for the lactate dehydrogenase (LDH) activity released from the cytosol of damaged cells, using a cytotoxicity detection kit (Roche Molecular Biochemicals) according to the manufacturer's instructions. The cytotoxicity index was calculated as follows: (LDH activity in the media−background LDH activity)÷(LDH activity in the medium of cells lysed by 1% Triton X-100−background LDH activity)×100.
Cell death assay. U2OS cells stably expressing Fortilin or its mutants were seeded in 96-well plates in triplicate. Cells were then challenged with 5 μg/mL of etoposide (Sigma) for 48 hours. Then the cell media were assayed for the lactate dehydrogenase (LDH) activity released from the cytosol of damaged cells, using a Cytotoxicity Detection Kit (Roche Molecular Biochemicals), according to the manufacturer's instructions. The cytotoxicity index was calculated as follows: (LDH activity in the media−background LDH activity)/(LDH activity in the medium of the cells lysed by 1% Triton X-100−background LDH activity)×100.
Statistical analysis. For analysis of the statistical significance of differences in cytotoxicity indices among cells stably transfected with Fortilin, its mutants or control plasmids, Student's t-test was performed using a commercial software (Minitab Inc., State College, Pa.). In all cases, a P-value less than 0.05 was considered to be statistically significant.

T1 sequence (Q07820 whole entry): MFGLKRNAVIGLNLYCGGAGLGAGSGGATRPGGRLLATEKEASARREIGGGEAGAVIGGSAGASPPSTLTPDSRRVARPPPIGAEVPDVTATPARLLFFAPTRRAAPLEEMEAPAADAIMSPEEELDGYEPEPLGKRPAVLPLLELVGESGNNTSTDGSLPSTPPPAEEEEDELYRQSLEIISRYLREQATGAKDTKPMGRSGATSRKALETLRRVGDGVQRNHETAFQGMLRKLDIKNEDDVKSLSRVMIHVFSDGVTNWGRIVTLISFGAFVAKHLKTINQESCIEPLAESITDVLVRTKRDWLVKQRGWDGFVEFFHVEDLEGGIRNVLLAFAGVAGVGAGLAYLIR
Bax, sequence (Q07812 whole entry, species assumed): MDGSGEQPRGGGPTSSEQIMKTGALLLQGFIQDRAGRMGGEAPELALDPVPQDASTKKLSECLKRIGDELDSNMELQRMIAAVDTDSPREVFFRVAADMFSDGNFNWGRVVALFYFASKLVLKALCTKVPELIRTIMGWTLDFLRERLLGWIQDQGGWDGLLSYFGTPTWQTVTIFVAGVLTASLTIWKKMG
PCNA, sequence (P12004 whole entry, species assumed): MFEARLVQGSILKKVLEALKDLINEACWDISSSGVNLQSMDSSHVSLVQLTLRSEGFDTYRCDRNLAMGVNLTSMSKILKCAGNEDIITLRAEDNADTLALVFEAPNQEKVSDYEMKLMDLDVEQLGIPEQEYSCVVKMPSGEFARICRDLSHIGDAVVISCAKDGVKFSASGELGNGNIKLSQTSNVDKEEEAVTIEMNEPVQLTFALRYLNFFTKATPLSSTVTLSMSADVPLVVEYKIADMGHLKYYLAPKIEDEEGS

Q: For “Fortilin: 172 amino acid anti-apoptotic polypeptide (SEQ ID NO:2), overexpressed from expression constructs or used as recombinant/in vitro translated protein”, which “prevention of Etoposide-induced apoptosis (apoptotic index)” value ([1]; HeLa cells overexpressing FLAG-tagged protein, 5 μg/mL etoposide 12 hours) is on record?
A: prevented HeLa cells from undergoing Etoposide-induced apoptosis in a statistically significant fashion; also recorded: as strong an anti-apoptotic effect as that of Bcl-xL and MCL1

Q: And the “apoptotic index versus amount of Fortilin expressed” value ([1]; HeLa cells, various amounts of pFLAG-Fortilin, etoposide challenge)?
A: more prominent anti-apoptotic effects

Q: What about the “co-precipitation of MCL1 with Fortilin in vitro” value [2] of the same substance?
A: co-precipitated with Fortilin

Q: And the “interaction / co-immunoprecipitation with MCL1 in vitro” value [3]?
A: co-immunoprecipitated with Fortilin in vitro

Q: What about the “interaction / co-immunoprecipitation with MCL1 in vitro” value ([3]; listed as full-length Fortilin) of the same substance?
A: co-immunoprecipitated MCL1 in vitro; also recorded: interacted

Q: And the “co-immunoprecipitation of Bak with Fortilin in vitro” value [4]?
A: not

Q: What about the “co-immunoprecipitation of Bax with Fortilin in vitro” value [5] of the same substance?
A: not

Q: What about the “co-immunoprecipitation of PCNA with Fortilin in vitro” value [6] of the same substance?
A: not PCNA

Q: What about the “prevention of Bax mediated apoptosis (apoptotic index)” value [7] of the same substance?
A: suppressed Bax induced cell death

Q: What about the “cytotoxicity index relative to control transfectants” value ([8]; listed as wild type Fortilin) of the same substance?
A: significantly lower

Q: And the “cytotoxicity index relative to control transfectants” value ([8]; listed as wild-type fortilin)?
A: significantly lower than the cytotoxicity index of control cells

Q: And the “etoposide-induced cytotoxicity (LDH cytotoxicity index), time course” value ([8]; U2OS stably expressing Fortilin vs empty vector, 5 μg/mL etoposide, 48, 72, 96 hours)?
A: lesser amounts of etoposide-induced cytotoxicity after incubation periods of 48, 72, and 96 hours; also recorded: significantly less cytotoxicity at various time points after the etoposide challenge

Q: What about the “etoposide-induced cytotoxicity (LDH cytotoxicity index), dose response” value ([8]; U2OS stably expressing Fortilin vs empty vector, etoposide 2.5, 5, 10, 20 μg/mL, 48 hours) of the same substance?
A: significantly lesser amounts of etoposide-induced cytotoxicity; also recorded: significantly less cytotoxicity over the wide range of etoposide concentrations
